# T1: FcγRIIa R (FcγRIIa, allotype with Arg at position 131), extracellular domain with C-terminal His tag (human, UniProt P12318 34-217)
# T1 construct: extracellular domain; also called FcγRIIa R type; 2aR
# T1 sequence (looked up): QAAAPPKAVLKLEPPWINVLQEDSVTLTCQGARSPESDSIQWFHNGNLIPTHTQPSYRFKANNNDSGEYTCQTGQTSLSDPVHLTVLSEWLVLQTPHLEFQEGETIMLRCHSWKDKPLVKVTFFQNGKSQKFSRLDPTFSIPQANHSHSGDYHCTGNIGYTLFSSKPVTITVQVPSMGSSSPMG
# B1: GpH7-A5/GpH7-B3 variant T335_07I/GpL16-k0 (antibody, human IgG1, kappa)
# heavy 1: not shown
# heavy 2: not shown
# light: DIVMTQSPLSLPVTPGEPASISCQASESLVHSNRNTYLHWYLQKPGQSPQLLIYKVSNRFSGVPDRFSGSGSGTDFTLKISRVEAEDVGVYYCSQNTHVPPTFGQGTKVEIERTVAAPSVFIFPPSDEQLKSGTASVVCLLNNFYPREAKVQWKVDNALQSGNSQESVTEQDSKDSTYSLSSTLTLSKADYEKHKVYACEVTHQGLSSPVTKSFNRGEC
# notes: also called He Ab
# B2: GpH7-A5/GpH7-B3 variant S298_06M/GpL16-k0 (antibody, human IgG1, kappa)
# heavy 1: not shown
# heavy 2: not shown
# light: B1 light
# notes: also called He Ab
# B3: GpH7-A5/GpH7-B3 variant S267_03V/GpL16-k0 (antibody, human IgG1, kappa)
# heavy 1: not shown
# heavy 2: not shown
# light: B1 light
# notes: also called He Ab
# B4: GpH7-A5/GpH7-B3 variant S298_08L/GpL16-k0 (antibody, human IgG1, kappa)
# heavy 1: not shown
# heavy 2: not shown
# light: B1 light
# notes: also called He Ab
# B5: GpH7-A5/GpH7-B3 variant S337_18N/GpL16-k0 (antibody, human IgG1, kappa)
# heavy 1: not shown
# heavy 2: not shown
# light: B1 light
# notes: also called He Ab
# B6: GpH7-A5/GpH7-B3 variant S239_08L/GpL16-k0 (antibody, human IgG1, kappa)
# heavy 1: not shown
# heavy 2: not shown
# light: B1 light
# notes: also called He Ab
# B7: GpH7-A5/GpH7-B3 variant S337_11K/GpL16-k0 (antibody, human IgG1, kappa)
# heavy 1: not shown
# heavy 2: not shown
# light: B1 light
# notes: also called He Ab
# B8: GpH7-A5/GpH7-B3 variant S337_03V/GpL16-k0 (antibody, human IgG1, kappa)
# heavy 1: not shown
# heavy 2: not shown
# light: B1 light
# notes: also called He Ab
# B9: GpH7-A5/GpH7-B3 variant P331_08L/GpL16-k0 (antibody, human IgG1, kappa)
# heavy 1: not shown
# heavy 2: not shown
# light: B1 light
# notes: also called He Ab
# B10: GpH7-A5/GpH7-B3 variant Q295_06M/GpL16-k0 (antibody, human IgG1, kappa)
# heavy 1: not shown
# heavy 2: not shown
# light: B1 light
# notes: also called He Ab
# B11: GpH7-B3 variant Y296_20W/GpL16-k0 (antibody, human IgG1, kappa)
# heavy: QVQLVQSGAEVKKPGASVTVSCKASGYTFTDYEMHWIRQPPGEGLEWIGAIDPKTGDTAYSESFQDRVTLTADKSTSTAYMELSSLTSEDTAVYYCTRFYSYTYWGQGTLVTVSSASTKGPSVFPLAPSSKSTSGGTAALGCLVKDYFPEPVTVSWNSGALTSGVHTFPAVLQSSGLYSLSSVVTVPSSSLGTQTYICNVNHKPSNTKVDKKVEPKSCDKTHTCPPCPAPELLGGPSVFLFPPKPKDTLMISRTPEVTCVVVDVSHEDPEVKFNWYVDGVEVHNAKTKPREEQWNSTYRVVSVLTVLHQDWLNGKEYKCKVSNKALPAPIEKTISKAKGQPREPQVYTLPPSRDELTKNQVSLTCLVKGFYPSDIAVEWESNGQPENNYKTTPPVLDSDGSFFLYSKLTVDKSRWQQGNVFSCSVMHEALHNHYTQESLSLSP
# light: B1 light
# notes: also called Ho Ab
# B12: GpH7-A5/GpH7-B3 variant T335_12R/GpL16-k0 (antibody, human IgG1, kappa)
# heavy 1: not shown
# heavy 2: not shown
# light: B1 light
# notes: also called He Ab
# B13: GpH7-B3 variant Y296_16H/GpL16-k0 (antibody, human IgG1, kappa)
# heavy: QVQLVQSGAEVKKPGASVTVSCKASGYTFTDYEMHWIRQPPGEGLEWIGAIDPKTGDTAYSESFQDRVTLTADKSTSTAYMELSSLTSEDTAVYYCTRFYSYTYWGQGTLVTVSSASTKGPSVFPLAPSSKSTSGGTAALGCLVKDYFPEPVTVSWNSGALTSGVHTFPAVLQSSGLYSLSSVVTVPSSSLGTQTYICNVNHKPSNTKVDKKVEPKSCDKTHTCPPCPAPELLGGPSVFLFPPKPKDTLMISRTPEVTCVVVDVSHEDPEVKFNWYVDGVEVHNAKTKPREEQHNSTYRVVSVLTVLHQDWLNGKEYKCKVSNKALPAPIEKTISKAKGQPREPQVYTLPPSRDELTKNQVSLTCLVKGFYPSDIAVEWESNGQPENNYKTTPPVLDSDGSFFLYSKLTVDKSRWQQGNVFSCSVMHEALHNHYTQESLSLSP
# light: B1 light
# notes: also called Ho Ab
# B14: GpH7-A5/GpH7-B3 variant S324_06M/GpL16-k0 (antibody, human IgG1, kappa)
# heavy 1: not shown
# heavy 2: not shown
# light: B1 light
# notes: also called He Ab
# B15: GpH7-A5/GpH7-B3 variant P331_15Y/GpL16-k0 (antibody, human IgG1, kappa)
# heavy 1: not shown
# heavy 2: not shown
# light: B1 light
# notes: also called He Ab
# B16: GpH7-A5/GpH7-B3 variant P331_09D/GpL16-k0 (antibody, human IgG1, kappa)
# heavy 1: not shown
# heavy 2: not shown
# light: B1 light
# notes: also called He Ab
# B17: GpH7-A5/GpH7-B3 variant S267_19Q/GpL16-k0 (antibody, human IgG1, kappa)
# heavy 1: not shown
# heavy 2: not shown
# light: B1 light
# notes: also called He Ab
# B18: GpH7-B3 variant Y296_19Q/GpL16-k0 (antibody, human IgG1, kappa)
# heavy: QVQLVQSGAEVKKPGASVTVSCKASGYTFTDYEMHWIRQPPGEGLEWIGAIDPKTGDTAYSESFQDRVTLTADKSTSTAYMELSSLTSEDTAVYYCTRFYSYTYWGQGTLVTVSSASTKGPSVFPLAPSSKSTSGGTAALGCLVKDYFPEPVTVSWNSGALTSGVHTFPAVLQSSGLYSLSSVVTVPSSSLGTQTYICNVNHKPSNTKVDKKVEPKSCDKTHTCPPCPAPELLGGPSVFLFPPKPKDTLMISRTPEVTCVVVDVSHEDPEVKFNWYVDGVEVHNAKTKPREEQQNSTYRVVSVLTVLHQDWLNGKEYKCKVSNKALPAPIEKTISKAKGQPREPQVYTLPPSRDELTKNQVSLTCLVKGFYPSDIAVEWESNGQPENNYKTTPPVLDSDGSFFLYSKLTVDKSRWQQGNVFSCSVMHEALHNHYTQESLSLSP
# light: B1 light
# notes: also called Ho Ab
# B19: GpH7-A5/GpH7-B3 variant S337_06M/GpL16-k0 (antibody, human IgG1, kappa)
# heavy 1: not shown
# heavy 2: not shown
# light: B1 light
# notes: also called He Ab
# B20: GpH7-A5/GpH7-B3 variant P331_07I/GpL16-k0 (antibody, human IgG1, kappa)
# heavy 1: not shown
# heavy 2: not shown
# light: B1 light
# notes: also called He Ab
# B21: GpH7-A5/GpH7-B3 variant T335_16H/GpL16-k0 (antibody, human IgG1, kappa)
# heavy 1: not shown
# heavy 2: not shown
# light: B1 light
# notes: also called He Ab
# B22: GpH7-A5/GpH7-B3 variant S337_09D/GpL16-k0 (antibody, human IgG1, kappa)
# heavy 1: not shown
# heavy 2: not shown
# light: B1 light
# notes: also called He Ab
# B23: GpH7-A5/GpH7-B3 variant S324_04F/GpL16-k0 (antibody, human IgG1, kappa)
# heavy 1: not shown
# heavy 2: not shown
# light: B1 light
# notes: also called He Ab
# B24: GpH7-A5/GpH7-B3 variant S267_09D/GpL16-k0 (antibody, human IgG1, kappa)
# heavy 1: not shown
# heavy 2: not shown
# light: B1 light
# notes: also called He Ab
# B25: GpH7-A5/GpH7-B3 variant S239_07I/GpL16-k0 (antibody, human IgG1, kappa)
# heavy 1: not shown
# heavy 2: not shown
# light: B1 light
# notes: also called He Ab
# B26: GpH7-A5/GpH7-B3 variant S239_14T/GpL16-k0 (antibody, human IgG1, kappa)
# heavy 1: not shown
# heavy 2: not shown
# light: B1 light
# notes: also called He Ab
# B27: GpH7-A5/GpH7-B3 variant T335_15Y/GpL16-k0 (antibody, human IgG1, kappa)
# heavy 1: not shown
# heavy 2: not shown
# light: B1 light
# notes: also called He Ab
# B28: GpH7-A5/GpH7-B3 variant S239_18N/GpL16-k0 (antibody, human IgG1, kappa)
# heavy 1: not shown
# heavy 2: not shown
# light: B1 light
# notes: also called He Ab
# B29: GpH7-B3 variant Y300_18N/GpL16-k0 (antibody, human IgG1, kappa)
# heavy: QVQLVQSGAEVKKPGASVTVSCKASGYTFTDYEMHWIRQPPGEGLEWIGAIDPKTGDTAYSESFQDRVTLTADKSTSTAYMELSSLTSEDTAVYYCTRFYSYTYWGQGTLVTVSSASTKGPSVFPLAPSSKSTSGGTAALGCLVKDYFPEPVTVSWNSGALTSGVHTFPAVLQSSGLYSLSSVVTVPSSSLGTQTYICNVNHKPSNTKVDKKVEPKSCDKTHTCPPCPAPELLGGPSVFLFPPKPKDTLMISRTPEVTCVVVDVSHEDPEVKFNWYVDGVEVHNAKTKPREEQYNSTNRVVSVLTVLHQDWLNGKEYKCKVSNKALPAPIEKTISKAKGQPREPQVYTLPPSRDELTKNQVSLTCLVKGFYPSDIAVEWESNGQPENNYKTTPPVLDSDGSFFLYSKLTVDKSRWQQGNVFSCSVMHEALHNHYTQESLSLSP
# light: B1 light
# notes: also called Ho Ab
# B30: GpH7-A5/GpH7-B3 variant S239_06M/GpL16-k0 (antibody, human IgG1, kappa)
# heavy 1: not shown
# heavy 2: not shown
# light: B1 light
# notes: also called He Ab
# Target: T1, FcγRIIa R (FcγRIIa, allotype with Arg …)
# Test: SPR (Biacore), antibody captured on antigen peptide chip, FcγR as analyte; relative binding
He/Con_2aR,Ho/Con_2aR,Binder
109 % of GpH7-A5/GpH7-B3/GpL16-k0 (=100),,B1
108 % of GpH7-A5/GpH7-B3/GpL16-k0 (=100),,B2
116 % of GpH7-A5/GpH7-B3/GpL16-k0 (=100),,B3
105 % of GpH7-A5/GpH7-B3/GpL16-k0 (=100),,B4
107 % of GpH7-A5/GpH7-B3/GpL16-k0 (=100),,B5
122 % of GpH7-A5/GpH7-B3/GpL16-k0 (=100),,B6
103 % of GpH7-A5/GpH7-B3/GpL16-k0 (=100),,B7
106 % of GpH7-A5/GpH7-B3/GpL16-k0 (=100),,B8
102 % of GpH7-A5/GpH7-B3/GpL16-k0 (=100),,B9
102 % of GpH7-A5/GpH7-B3/GpL16-k0 (=100),,B10
,107 % of GpH7-B3/GpL16-k0 (=100),B11
100 % of GpH7-A5/GpH7-B3/GpL16-k0 (=100),,B12
,89.5 % of GpH7-B3/GpL16-k0 (=100),B13
123 % of GpH7-A5/GpH7-B3/GpL16-k0 (=100),,B14
112 % of GpH7-A5/GpH7-B3/GpL16-k0 (=100),,B15
102 % of GpH7-A5/GpH7-B3/GpL16-k0 (=100),,B16
135 % of GpH7-A5/GpH7-B3/GpL16-k0 (=100),,B17
,88.9 % of GpH7-B3/GpL16-k0 (=100),B18
105 % of GpH7-A5/GpH7-B3/GpL16-k0 (=100),,B19
110 % of GpH7-A5/GpH7-B3/GpL16-k0 (=100),,B20
108 % of GpH7-A5/GpH7-B3/GpL16-k0 (=100),,B21
115 % of GpH7-A5/GpH7-B3/GpL16-k0 (=100),,B22
104 % of GpH7-A5/GpH7-B3/GpL16-k0 (=100),,B23
173 % of GpH7-A5/GpH7-B3/GpL16-k0 (=100),,B24
102 % of GpH7-A5/GpH7-B3/GpL16-k0 (=100),,B25
103 % of GpH7-A5/GpH7-B3/GpL16-k0 (=100),,B26
111 % of GpH7-A5/GpH7-B3/GpL16-k0 (=100),,B27
111 % of GpH7-A5/GpH7-B3/GpL16-k0 (=100),,B28
,87.6 % of GpH7-B3/GpL16-k0 (=100),B29
101 % of GpH7-A5/GpH7-B3/GpL16-k0 (=100),,B30
